# From patent US20220289798A1 (published 2022)
# Numbering of substitutions follows the chain as printed. Names and notes keep the numbering of the source.
# B1: M78K20K Rx (other)
# chain: MSLTHRRFGGSGGSPFSGLSSIAVRSGSYLDAIIIDGVHHGGSGGNLSPTFTFGSGEYISNMTIRSGDYIDNISFETNKGRRFGPYGGSGGSANTLSNVRVIQINGSAGDYLDSLDIYYEQY
# modifications: chain 1 pos 79: Lys carrying 20,000 MW PEG by NHS-ester amine coupling, written K. It is the only lysine in the chain. At least one PEG per dimer. The exact site and occupancy were not measured.
# B2: M78K2K Rx Direct (other)
# chain: B1 chain
# modifications: chain 1 pos 79: Lys carrying 2,000 MW PEG by NHS-ester amine coupling, written K. It is the only lysine in the chain. At least one PEG per dimer. The exact site and occupancy were not measured.
# B3: Q 20K Direct (other)
# chain: B1 chain with R7K, K79Q, R100K
# modifications: 20,000 MW PEG coupled by NHS ester to a primary amine. The candidate sites are Lys pos 7 and Lys pos 100, both written K. At least one PEG per dimer. The exact site and number of PEGs are not determined.
# B4: NK 20K Direct (other)
# chain: MKSLTHRRFGGSGGSPFSGLSSIAVRSGSYLDAIIIDGVHHGGSGGNLSPTFTFGSGEYISNMTIRSGDYIDNISFETNQGRRFGPYGGSGGSANTLSNVRVIQINGSAGDYLDSLDIYYEQY
# modifications: 20,000 MW PEG coupled by NHS ester to a primary amine. The intended site is the added N-terminal Lys, pos 2, written K; the N-terminal amine is also possible. At least one PEG per dimer. The exact site and number of PEGs are not determined.
# B5: NK 2K Direct (other)
# chain: B4 chain
# modifications: 2,000 MW PEG coupled by NHS ester to a primary amine. The intended site is the added N-terminal Lys, pos 2, written K; the N-terminal amine is also possible. At least one PEG per dimer. The exact site and number of PEGs are not determined.
# B6: CK 20K Direct (other)
# chain: MSLTHRRFGGSGGSPFSGLSSIAVRSGSYLDAIIIDGVHHGGSGGNLSPTFTFGSGEYISNMTIRSGDYIDNISFETNQGRRFGPYGGSGGSANTLSNVRVIQINGSAGDYLDSLDIYYEQYK
# modifications: 20,000 MW PEG coupled by NHS ester to a primary amine. The intended site is the added C-terminal Lys, pos 123, written K. At least one PEG per dimer. The exact site and number of PEGs are not determined.
# B7: Q 20K (other)
# chain: B1 chain with R7K, K79Q, R100K
# modifications: 20,000 MW PEG coupled by NHS ester to a primary amine. The candidate sites are Lys pos 7 and Lys pos 100, both written K. At least one PEG per dimer. The exact site and number of PEGs are not determined.
# B8: M78K 2K (other)
# chain: B1 chain
# modifications: chain 1 pos 79: Lys carrying 2,000 MW PEG by NHS-ester amine coupling, written K. It is the only lysine in the chain. At least one PEG per dimer. The exact site and occupancy were not measured.
# B9: Q (other)
# chain: B1 chain with R7K, K79Q, R100K
# B10: M78K 20K (other)
# chain: B1 chain
# modifications: chain 1 pos 79: Lys carrying 20,000 MW PEG by NHS-ester amine coupling, written K. It is the only lysine in the chain. At least one PEG per dimer. The exact site and occupancy were not measured.
# B11: M78K (other)
# chain: B1 chain
# B12: NK 2K (other)
# chain: B4 chain
# modifications: 2,000 MW PEG coupled by NHS ester to a primary amine. The intended site is the added N-terminal Lys, pos 2, written K; the N-terminal amine is also possible. At least one PEG per dimer. The exact site and number of PEGs are not determined.
# B13: NK (other)
# chain: B4 chain
# B14: CK 20K (other)
# chain: B6 chain
# modifications: 20,000 MW PEG coupled by NHS ester to a primary amine. The intended site is the added C-terminal Lys, pos 123, written K. At least one PEG per dimer. The exact site and number of PEGs are not determined.
# B15: CK (other)
# chain: B6 chain
# B16: NK 20K (other)
# chain: B4 chain
# modifications: 20,000 MW PEG coupled by NHS ester to a primary amine. The intended site is the added N-terminal Lys, pos 2, written K; the N-terminal amine is also possible. At least one PEG per dimer. The exact site and number of PEGs are not determined.
# Target: Gp120 (HIV)
# Assay: direct ELISA; direct ELISA
row,Binder,EC50 [ng/mL]
1,B1,0.0624
2,B2,0.332
3,B3,0.0355
4,B4,0.0173
5,B5,0.0875
6,B6,0.029

# Target: Gp120 (HIV)
# Assay: ELISA
row,Binder,EC50 [ng/mL]
1,B7,33.6
2,B8,33.8
3,B9,8.38
4,B10,304
5,B11,11.1
6,B12,60.8
7,B13,15
8,B14,90.5
9,B15,10.5

# Target: Gp120 (HIV)
# Assay: indirect ELISA; indirect ELISA
row,Binder,EC50 [ng/mL]
1,B7,16.3
2,B8,10.9
3,B10,19.2
4,B16,26.4
5,B12,7.45
6,B14,14.1
